According to article PMC5499591 (Nucleic Acids Research, 2017):
Where a chain is given by its changes, count along the chain named. Numbers in names are those of the source. Blank lines part the entries; values can stand above or below the binder they belong to.

How the values were obtained:
[1] = target: T1, GST-Mcm10 (wild type) (Saccharomyces cerevisiae, UniProt P32354 1-571); assay: GST pull-down
T1 sequence: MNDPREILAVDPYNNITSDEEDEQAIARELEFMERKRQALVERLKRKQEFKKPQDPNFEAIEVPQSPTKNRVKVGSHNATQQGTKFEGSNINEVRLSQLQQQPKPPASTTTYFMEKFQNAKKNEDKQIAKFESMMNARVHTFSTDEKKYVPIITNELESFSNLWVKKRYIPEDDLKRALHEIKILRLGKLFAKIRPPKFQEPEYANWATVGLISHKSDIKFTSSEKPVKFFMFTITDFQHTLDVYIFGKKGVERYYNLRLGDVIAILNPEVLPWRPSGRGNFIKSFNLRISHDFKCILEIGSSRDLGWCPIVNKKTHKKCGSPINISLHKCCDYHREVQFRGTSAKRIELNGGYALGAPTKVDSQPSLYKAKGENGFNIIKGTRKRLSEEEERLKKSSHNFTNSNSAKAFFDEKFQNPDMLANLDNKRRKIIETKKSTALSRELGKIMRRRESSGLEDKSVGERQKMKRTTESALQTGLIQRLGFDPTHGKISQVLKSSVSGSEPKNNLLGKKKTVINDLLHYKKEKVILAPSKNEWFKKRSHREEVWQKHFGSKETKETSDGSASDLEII

[2] = target: T2, GST-Mcm10-4A (Saccharomyces cerevisiae, UniProt P32354 1-571, I26A;L30A;R37A;L40A); assay: GST pull-down
T2 sequence: T1 sequence with I26A, L30A, R37A, L40A

[3] = target: T3, wild-type GST-Mcm10 (Saccharomyces cerevisiae, UniProt P32354 1-571); assay: pull-down
T3 sequence: T1 sequence

[4] = target: T4, GST-p180 (budding yeast (S. cerevisiae), UniProt P13382 1-1468); assay: pull-down
T4 sequence: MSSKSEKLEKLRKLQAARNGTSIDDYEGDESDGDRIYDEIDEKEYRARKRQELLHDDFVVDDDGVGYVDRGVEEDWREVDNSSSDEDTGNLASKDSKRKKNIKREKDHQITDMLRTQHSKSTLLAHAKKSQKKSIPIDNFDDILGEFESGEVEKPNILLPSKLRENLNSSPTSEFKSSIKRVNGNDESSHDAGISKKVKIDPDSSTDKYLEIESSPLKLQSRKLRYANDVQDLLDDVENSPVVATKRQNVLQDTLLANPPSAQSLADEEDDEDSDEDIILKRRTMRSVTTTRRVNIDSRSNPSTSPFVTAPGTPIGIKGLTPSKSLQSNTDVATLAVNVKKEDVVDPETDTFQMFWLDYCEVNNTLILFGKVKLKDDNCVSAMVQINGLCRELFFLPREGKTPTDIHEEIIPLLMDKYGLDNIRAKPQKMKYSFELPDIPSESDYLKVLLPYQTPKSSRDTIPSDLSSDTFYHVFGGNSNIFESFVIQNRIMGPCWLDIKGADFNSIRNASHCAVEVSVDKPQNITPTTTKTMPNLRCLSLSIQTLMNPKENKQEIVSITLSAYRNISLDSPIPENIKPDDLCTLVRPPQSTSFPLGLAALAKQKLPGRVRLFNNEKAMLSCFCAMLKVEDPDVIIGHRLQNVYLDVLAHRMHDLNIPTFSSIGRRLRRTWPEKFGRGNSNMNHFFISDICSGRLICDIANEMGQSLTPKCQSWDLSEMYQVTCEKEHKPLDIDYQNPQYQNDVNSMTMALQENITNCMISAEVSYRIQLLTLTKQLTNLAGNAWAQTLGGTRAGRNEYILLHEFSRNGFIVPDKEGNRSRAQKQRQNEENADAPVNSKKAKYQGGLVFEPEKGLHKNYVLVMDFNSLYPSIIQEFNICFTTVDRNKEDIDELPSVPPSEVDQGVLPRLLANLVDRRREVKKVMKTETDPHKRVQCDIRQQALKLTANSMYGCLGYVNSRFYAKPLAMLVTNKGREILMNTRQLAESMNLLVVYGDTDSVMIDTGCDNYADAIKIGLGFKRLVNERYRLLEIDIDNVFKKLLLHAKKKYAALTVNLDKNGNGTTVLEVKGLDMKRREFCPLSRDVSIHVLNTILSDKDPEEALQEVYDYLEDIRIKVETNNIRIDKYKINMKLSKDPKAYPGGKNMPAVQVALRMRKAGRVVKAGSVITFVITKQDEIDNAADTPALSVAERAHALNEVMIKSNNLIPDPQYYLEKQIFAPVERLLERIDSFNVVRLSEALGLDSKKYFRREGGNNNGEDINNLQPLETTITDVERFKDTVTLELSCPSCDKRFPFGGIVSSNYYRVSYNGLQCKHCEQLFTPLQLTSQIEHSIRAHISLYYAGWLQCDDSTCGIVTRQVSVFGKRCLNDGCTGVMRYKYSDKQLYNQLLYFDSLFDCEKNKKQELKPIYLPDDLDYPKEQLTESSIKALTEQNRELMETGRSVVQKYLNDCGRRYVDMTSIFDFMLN

[5] = target: radiolabeled PKA-Mcm2–7 complex (budding yeast (S. cerevisiae), UniProt P29469;P24279;P30665;P29496;P53091;P38132); assay: pull-down
[6] = target: T5, GST-Dbf4 (budding yeast (S. cerevisiae), UniProt P32325 1-704); assay: pull-down
T5 sequence: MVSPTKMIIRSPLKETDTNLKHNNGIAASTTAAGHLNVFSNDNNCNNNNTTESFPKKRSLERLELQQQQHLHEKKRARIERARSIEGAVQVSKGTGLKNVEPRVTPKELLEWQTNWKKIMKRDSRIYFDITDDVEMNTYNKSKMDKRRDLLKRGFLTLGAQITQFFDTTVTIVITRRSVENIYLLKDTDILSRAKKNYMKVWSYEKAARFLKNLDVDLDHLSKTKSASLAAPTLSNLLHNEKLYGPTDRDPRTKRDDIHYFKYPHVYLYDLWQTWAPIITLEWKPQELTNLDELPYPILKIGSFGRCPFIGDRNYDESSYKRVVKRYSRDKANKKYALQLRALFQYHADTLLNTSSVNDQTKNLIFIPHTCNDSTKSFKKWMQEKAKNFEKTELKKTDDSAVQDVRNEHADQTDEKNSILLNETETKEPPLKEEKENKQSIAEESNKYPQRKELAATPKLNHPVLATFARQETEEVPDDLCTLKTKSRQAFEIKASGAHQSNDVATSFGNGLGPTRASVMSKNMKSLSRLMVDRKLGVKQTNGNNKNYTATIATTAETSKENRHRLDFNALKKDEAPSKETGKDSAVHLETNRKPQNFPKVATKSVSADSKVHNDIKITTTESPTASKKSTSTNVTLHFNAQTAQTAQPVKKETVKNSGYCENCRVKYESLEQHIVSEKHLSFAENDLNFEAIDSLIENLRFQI

[7] = target: T6, GST-Cdc45 (budding yeast (S. cerevisiae), UniProt Q08032 1-650); assay: pull-down
T6 sequence: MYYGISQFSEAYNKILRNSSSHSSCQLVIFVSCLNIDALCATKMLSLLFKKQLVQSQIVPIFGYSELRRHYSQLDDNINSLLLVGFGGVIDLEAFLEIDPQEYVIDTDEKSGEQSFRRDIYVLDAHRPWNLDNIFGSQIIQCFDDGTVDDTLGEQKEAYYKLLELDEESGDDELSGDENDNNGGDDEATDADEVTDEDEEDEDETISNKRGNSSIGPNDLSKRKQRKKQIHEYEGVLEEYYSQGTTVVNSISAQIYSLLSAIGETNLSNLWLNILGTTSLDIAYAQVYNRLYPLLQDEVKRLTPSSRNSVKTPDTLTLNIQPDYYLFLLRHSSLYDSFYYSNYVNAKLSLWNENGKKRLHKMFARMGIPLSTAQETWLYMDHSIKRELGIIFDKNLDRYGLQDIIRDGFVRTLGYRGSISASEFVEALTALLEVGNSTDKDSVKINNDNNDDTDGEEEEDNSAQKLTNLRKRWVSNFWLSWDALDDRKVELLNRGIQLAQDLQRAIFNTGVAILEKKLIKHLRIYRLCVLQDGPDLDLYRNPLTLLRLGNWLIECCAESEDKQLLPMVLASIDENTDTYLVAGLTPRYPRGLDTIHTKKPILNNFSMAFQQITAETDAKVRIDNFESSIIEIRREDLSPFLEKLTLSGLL

B1: 80mer ssDNA (80dT) (ssDNA)
DNA: TTTTTTTTTTTTTTTTTTTTTTTTTTTTTTTTTTTTTTTTTTTTTTTTTTTTTTTTTTTTTTTTTTTTTTTTTTTTTTTT
binding result [1]: binds

B2: blunt dsDNA (called 30mer) (dsDNA)
DNA 1: ATGTCCTAGCAAGCCAGAATTCGGCAGCGTC
DNA 2: GACGCTGCCGAATTCTGGCTTGCTAGGACAT
binding result [1]: binds

Binder: ATGTCCTAGCAAGCCAGAATTCGGC (ssDNA) [25mer ssDNA]
binding result [2]: binds | binding result [1]: binds

binding result [3]: binds | binding result [4]: binds
B3: radiolabeled wild-type PKA-Mcm10 (natural protein)
chain: T1 sequence
modifications: 32P label put on the PKA tag by protein kinase A with [gamma-32P]-ATP

binding result [5]: binds
B4: GST-Mcm10-4A (Mcm10-I26A-L30A-R37A-L40A) (natural protein)
chain: T1 sequence with I26A, L30A, R37A, L40A

binding result [4]: binds | binding result [6]: binds | binding result [7]: binds
B5: radiolabeled PKA-Mcm10-4A (Mcm10-I26A-L30A-R37A-L40A) (natural protein)
chain: T1 sequence with I26A, L30A, R37A, L40A
modifications: 32P label put on the PKA tag by protein kinase A with [gamma-32P]-ATP
